T1: TNFR1 (Homo sapiens, UniProt P19438)
T1 chain: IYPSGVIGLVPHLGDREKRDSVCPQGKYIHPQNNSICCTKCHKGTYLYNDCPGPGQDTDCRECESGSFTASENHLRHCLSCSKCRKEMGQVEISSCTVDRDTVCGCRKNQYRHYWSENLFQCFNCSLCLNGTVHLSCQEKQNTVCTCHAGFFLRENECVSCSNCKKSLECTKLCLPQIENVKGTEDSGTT


Target: T1, TNFR1
Experiment: yeast display SC50

Binder | apparent Kd (screen)
E95Y (designed binder) MTLQELLREEALRRAEAEAFRYALELLAEKFPEQKEYLLDLAEEIESQIRSLSGVDVEDVRKFLDKEWAWVKELLAEHPAELAEVEAARAARLAYLRAEVEAKVAA | 718 pM
L74Y (designed binder) MTLQELLREEALRRAEAEAFRYALELLAEKFPEQKEYLLDLAEEIESQIRSLSGVDVEDVRKFLDKEWAWVKEYLAEHPAELAEVEAARAARLAELRAEVEAKVAA | 869 pM
K30F (designed binder) MTLQELLREEALRRAEAEAFRYALELLAEFFPEQKEYLLDLAEEIESQIRSLSGVDVEDVRKFLDKEWAWVKELLAEHPAELAEVEAARAARLAELRAEVEAKVAA | 539 pM
V55I (designed binder) MTLQELLREEALRRAEAEAFRYALELLAEKFPEQKEYLLDLAEEIESQIRSLSGIDVEDVRKFLDKEWAWVKELLAEHPAELAEVEAARAARLAELRAEVEAKVAA | 539 pM
V104M (designed binder) MTLQELLREEALRRAEAEAFRYALELLAEKFPEQKEYLLDLAEEIESQIRSLSGVDVEDVRKFLDKEWAWVKELLAEHPAELAEVEAARAARLAELRAEVEAKMAA | 653 pM
E18C (designed binder) MTLQELLREEALRRAEACAFRYALELLAEKFPEQKEYLLDLAEEIESQIRSLSGVDVEDVRKFLDKEWAWVKELLAEHPAELAEVEAARAARLAELRAEVEAKVAA | 790 pM
V71W (designed binder) MTLQELLREEALRRAEAEAFRYALELLAEKFPEQKEYLLDLAEEIESQIRSLSGVDVEDVRKFLDKEWAWWKELLAEHPAELAEVEAARAARLAELRAEVEAKVAA | 2480 pM
R13K (designed binder) MTLQELLREEALKRAEAEAFRYALELLAEKFPEQKEYLLDLAEEIESQIRSLSGVDVEDVRKFLDKEWAWVKELLAEHPAELAEVEAARAARLAELRAEVEAKVAA | 869 pM
L38S (designed binder) MTLQELLREEALRRAEAEAFRYALELLAEKFPEQKEYSLDLAEEIESQIRSLSGVDVEDVRKFLDKEWAWVKELLAEHPAELAEVEAARAARLAELRAEVEAKVAA | 11400 pM
E43W (designed binder) MTLQELLREEALRRAEAEAFRYALELLAEKFPEQKEYLLDLAWEIESQIRSLSGVDVEDVRKFLDKEWAWVKELLAEHPAELAEVEAARAARLAELRAEVEAKVAA | 539 pM
S53G (designed binder) MTLQELLREEALRRAEAEAFRYALELLAEKFPEQKEYLLDLAEEIESQIRSLGGVDVEDVRKFLDKEWAWVKELLAEHPAELAEVEAARAARLAELRAEVEAKVAA | 2480 pM
L96S (designed binder) MTLQELLREEALRRAEAEAFRYALELLAEKFPEQKEYLLDLAEEIESQIRSLSGVDVEDVRKFLDKEWAWVKELLAEHPAELAEVEAARAARLAESRAEVEAKVAA | 539 pM
E44R (designed binder) MTLQELLREEALRRAEAEAFRYALELLAEKFPEQKEYLLDLAERIESQIRSLSGVDVEDVRKFLDKEWAWVKELLAEHPAELAEVEAARAARLAELRAEVEAKVAA | 1540 pM
E10W (designed binder) MTLQELLREWALRRAEAEAFRYALELLAEKFPEQKEYLLDLAEEIESQIRSLSGVDVEDVRKFLDKEWAWVKELLAEHPAELAEVEAARAARLAELRAEVEAKVAA | 2050 pM
L64A (designed binder) MTLQELLREEALRRAEAEAFRYALELLAEKFPEQKEYLLDLAEEIESQIRSLSGVDVEDVRKFADKEWAWVKELLAEHPAELAEVEAARAARLAELRAEVEAKVAA | 13800 pM
A83Q (designed binder) MTLQELLREEALRRAEAEAFRYALELLAEKFPEQKEYLLDLAEEIESQIRSLSGVDVEDVRKFLDKEWAWVKELLAEHPAELQEVEAARAARLAELRAEVEAKVAA | 446 pM
L82I (designed binder) MTLQELLREEALRRAEAEAFRYALELLAEKFPEQKEYLLDLAEEIESQIRSLSGVDVEDVRKFLDKEWAWVKELLAEHPAEIAEVEAARAARLAELRAEVEAKVAA | 490 pM

Binder | apparent Kd (screen)
L12D (designed binder) MTLQELLREEADRRAEAEAFRYALELLAEKFPEQKEYLLDLAEEIESQIRSLSGVDVEDVRKFLDKEWAWVKELLAEHPAELAEVEAARAARLAELRAEVEAKVAA | 1050 pM
K72W (designed binder) MTLQELLREEALRRAEAEAFRYALELLAEKFPEQKEYLLDLAEEIESQIRSLSGVDVEDVRKFLDKEWAWVWELLAEHPAELAEVEAARAARLAELRAEVEAKVAA | 790 pM
L74Q (designed binder) MTLQELLREEALRRAEAEAFRYALELLAEKFPEQKEYLLDLAEEIESQIRSLSGVDVEDVRKFLDKEWAWVKEQLAEHPAELAEVEAARAARLAELRAEVEAKVAA | 1540 pM
K35C (designed binder) MTLQELLREEALRRAEAEAFRYALELLAEKFPEQCEYLLDLAEEIESQIRSLSGVDVEDVRKFLDKEWAWVKELLAEHPAELAEVEAARAARLAELRAEVEAKVAA | 446 pM
L24N (designed binder) MTLQELLREEALRRAEAEAFRYANELLAEKFPEQKEYLLDLAEEIESQIRSLSGVDVEDVRKFLDKEWAWVKELLAEHPAELAEVEAARAARLAELRAEVEAKVAA | 405 pM
L38C (designed binder) MTLQELLREEALRRAEAEAFRYALELLAEKFPEQKEYCLDLAEEIESQIRSLSGVDVEDVRKFLDKEWAWVKELLAEHPAELAEVEAARAARLAELRAEVEAKVAA | 4390 pM
D56S (designed binder) MTLQELLREEALRRAEAEAFRYALELLAEKFPEQKEYLLDLAEEIESQIRSLSGVSVEDVRKFLDKEWAWVKELLAEHPAELAEVEAARAARLAELRAEVEAKVAA | 1270 pM
E25Y (designed binder) MTLQELLREEALRRAEAEAFRYALYLLAEKFPEQKEYLLDLAEEIESQIRSLSGVDVEDVRKFLDKEWAWVKELLAEHPAELAEVEAARAARLAELRAEVEAKVAA | 653 pM
P79T (designed binder) MTLQELLREEALRRAEAEAFRYALELLAEKFPEQKEYLLDLAEEIESQIRSLSGVDVEDVRKFLDKEWAWVKELLAEHTAELAEVEAARAARLAELRAEVEAKVAA | 653 pM
E73M (designed binder) MTLQELLREEALRRAEAEAFRYALELLAEKFPEQKEYLLDLAEEIESQIRSLSGVDVEDVRKFLDKEWAWVKMLLAEHPAELAEVEAARAARLAELRAEVEAKVAA | 653 pM
L12G (designed binder) MTLQELLREEAGRRAEAEAFRYALELLAEKFPEQKEYLLDLAEEIESQIRSLSGVDVEDVRKFLDKEWAWVKELLAEHPAELAEVEAARAARLAELRAEVEAKVAA | 2250 pM
L52Q (designed binder) MTLQELLREEALRRAEAEAFRYALELLAEKFPEQKEYLLDLAEEIESQIRSQSGVDVEDVRKFLDKEWAWVKELLAEHPAELAEVEAARAARLAELRAEVEAKVAA | 539 pM
E9S (designed binder) MTLQELLRSEALRRAEAEAFRYALELLAEKFPEQKEYLLDLAEEIESQIRSLSGVDVEDVRKFLDKEWAWVKELLAEHPAELAEVEAARAARLAELRAEVEAKVAA | 869 pM
D40S (designed binder) MTLQELLREEALRRAEAEAFRYALELLAEKFPEQKEYLLSLAEEIESQIRSLSGVDVEDVRKFLDKEWAWVKELLAEHPAELAEVEAARAARLAELRAEVEAKVAA | 539 pM
L64W (designed binder) MTLQELLREEALRRAEAEAFRYALELLAEKFPEQKEYLLDLAEEIESQIRSLSGVDVEDVRKFWDKEWAWVKELLAEHPAELAEVEAARAARLAELRAEVEAKVAA | 26900 pM
R13S (designed binder) MTLQELLREEALSRAEAEAFRYALELLAEKFPEQKEYLLDLAEEIESQIRSLSGVDVEDVRKFLDKEWAWVKELLAEHPAELAEVEAARAARLAELRAEVEAKVAA | 277 pM
E44V (designed binder) MTLQELLREEALRRAEAEAFRYALELLAEKFPEQKEYLLDLAEVIESQIRSLSGVDVEDVRKFLDKEWAWVKELLAEHPAELAEVEAARAARLAELRAEVEAKVAA | 6430 pM

— PMC12416549 (2024)
